Here are results for 4 molecules from patent US20200283478A1 (Genentech, published 2020).

Bridge positions count the residues as written; N and C are the ends. Square brackets hold non-standard residues; d marks the D form. Primed or numbered codes have the meaning given here. hArg = N=C(N)NCCCC[C@H](N)C(=O)O; Hyp′ = 3-hydroxyproline A value given as a limit tells only on which side of the number the result lay.

Assay [1] deals with T1, proprotein convertase subtilisin/kexin type 9 (PCSK9) (human, UniProt Q8NBP7 31-692).
T1 construct: His-tagged full-length PCSK9 in TR-FRET and SPR, biotinylated in phage ELISA; secreted protein is autoprocessed (prodomain plus catalytic/CRD chain starting at S153); also called rec.PCSK9; His-PCSK9
Description: TR-FRET competition (Table 11).

For assay [2], the target named is T2, His-tagged, full-length human PCSK9 (proprotein convertase subtilisin/kexin type 9) (human, UniProt A8T644 31-152; Q8NBP7 153-692).
T2 construct: also called His-PCSK9; C-terminal (His)8-tagged PCSK9
Description: TR-FRET competition; His-PCSK9 with EGF(A)-Fc as competitor ligand.
Description: (§1) Signal generation in the PCSK9 binding assays was dependent upon the binding interaction to bring into close proximity the His-tag on the PCSK9 and the Fc-tag on the ligand. Anti-His-APC was bound to the His-tag, and anti-Fc-europium was bound to the Fc-tag.
(§2) Compounds were solubilized and dilutions were prepared in DMSO. […] The plate was centrifuged to mix the well contents and allowed to incubate for 30 min. […] The normalized TR-FRET ratios were plotted as a function of the compound concentrations, and the IC₅₀ values were determined using a 4-parameter logistic regression.

For assay [3], the target named is T3, PCSK9Δhelix (human PCSK9 lacking the P' helix, His-tagged) (human, UniProt Q8NBP7 31-152; Q8NBP7 168-692).
T3 construct: Construct M1-Q692 with an engineered TEV site (Y166 and R167 deleted, ENLYFQS inserted between R165 and A168); also called His-PCSK9Δhelix; C-terminal (His)8-tagged PCSK9Δhelix
Put plainly: TR-FRET competition; His-PCSK9Δhelix with Ab20 as competitor ligand.
Description: as §1, §2

A further assay addresses T4, PCSK9Δhelix (human, Chemically biotinylated in the phage ELISAs; the site is not given.).
T4 construct: construct M1-Q692 with engineered TEV site, cleaved by TEV; also called His-PCSK9Δhelix; open groove PCSK9Δhelix
Put plainly: SPR.

The target in assay [4] is T1, proprotein convertase subtilisin/kexin …. Description: SPR.

T1 sequence (Q8NBP7 other isoform, or with tags, fused parts or gaps limits assumed): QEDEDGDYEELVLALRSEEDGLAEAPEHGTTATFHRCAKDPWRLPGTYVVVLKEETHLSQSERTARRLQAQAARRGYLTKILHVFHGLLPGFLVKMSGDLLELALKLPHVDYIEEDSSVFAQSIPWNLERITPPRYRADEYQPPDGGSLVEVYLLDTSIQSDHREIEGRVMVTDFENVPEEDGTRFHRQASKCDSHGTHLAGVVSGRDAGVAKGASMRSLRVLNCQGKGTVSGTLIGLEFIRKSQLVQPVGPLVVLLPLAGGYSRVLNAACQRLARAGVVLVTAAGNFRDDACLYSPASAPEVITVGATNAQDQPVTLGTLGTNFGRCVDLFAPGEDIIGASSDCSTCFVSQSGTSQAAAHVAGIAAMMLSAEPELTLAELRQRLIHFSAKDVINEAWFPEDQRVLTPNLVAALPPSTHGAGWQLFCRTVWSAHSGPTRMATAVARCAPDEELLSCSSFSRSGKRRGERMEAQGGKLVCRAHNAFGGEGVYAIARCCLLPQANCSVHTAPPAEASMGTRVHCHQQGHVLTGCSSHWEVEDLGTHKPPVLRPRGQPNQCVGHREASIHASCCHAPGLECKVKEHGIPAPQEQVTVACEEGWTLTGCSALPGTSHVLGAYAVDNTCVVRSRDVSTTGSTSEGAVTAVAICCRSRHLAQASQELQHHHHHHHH
T2 sequence (A8T644 31-152, chain 1 of 2): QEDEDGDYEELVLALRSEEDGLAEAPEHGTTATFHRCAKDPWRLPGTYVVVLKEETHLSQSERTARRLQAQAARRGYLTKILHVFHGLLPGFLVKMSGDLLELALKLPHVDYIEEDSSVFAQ
T2 sequence (A8T644 other isoform, or with tags, fused parts or gaps, chain 2 of 2): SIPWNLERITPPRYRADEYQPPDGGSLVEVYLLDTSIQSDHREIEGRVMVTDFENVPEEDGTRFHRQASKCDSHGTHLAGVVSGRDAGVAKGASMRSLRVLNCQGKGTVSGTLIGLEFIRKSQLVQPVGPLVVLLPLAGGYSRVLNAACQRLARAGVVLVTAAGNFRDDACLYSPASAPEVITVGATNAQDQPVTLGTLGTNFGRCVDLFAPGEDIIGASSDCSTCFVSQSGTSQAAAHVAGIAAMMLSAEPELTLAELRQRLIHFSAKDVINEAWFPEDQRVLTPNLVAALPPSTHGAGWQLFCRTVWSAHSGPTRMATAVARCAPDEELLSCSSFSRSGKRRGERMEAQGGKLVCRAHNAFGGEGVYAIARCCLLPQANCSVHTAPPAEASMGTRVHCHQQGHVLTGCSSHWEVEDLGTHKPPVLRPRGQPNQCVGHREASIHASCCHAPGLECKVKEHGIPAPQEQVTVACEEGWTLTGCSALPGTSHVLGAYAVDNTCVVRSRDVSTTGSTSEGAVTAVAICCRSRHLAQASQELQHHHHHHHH
T4 sequence (prodomain, as listed by the source mutant limits assumed, chain 1 of 2): as the sequence (A8T644 31-152, chain 1 of 2) above
T4 sequence (chain, as listed by the source mutant limits assumed, chain 2 of 2): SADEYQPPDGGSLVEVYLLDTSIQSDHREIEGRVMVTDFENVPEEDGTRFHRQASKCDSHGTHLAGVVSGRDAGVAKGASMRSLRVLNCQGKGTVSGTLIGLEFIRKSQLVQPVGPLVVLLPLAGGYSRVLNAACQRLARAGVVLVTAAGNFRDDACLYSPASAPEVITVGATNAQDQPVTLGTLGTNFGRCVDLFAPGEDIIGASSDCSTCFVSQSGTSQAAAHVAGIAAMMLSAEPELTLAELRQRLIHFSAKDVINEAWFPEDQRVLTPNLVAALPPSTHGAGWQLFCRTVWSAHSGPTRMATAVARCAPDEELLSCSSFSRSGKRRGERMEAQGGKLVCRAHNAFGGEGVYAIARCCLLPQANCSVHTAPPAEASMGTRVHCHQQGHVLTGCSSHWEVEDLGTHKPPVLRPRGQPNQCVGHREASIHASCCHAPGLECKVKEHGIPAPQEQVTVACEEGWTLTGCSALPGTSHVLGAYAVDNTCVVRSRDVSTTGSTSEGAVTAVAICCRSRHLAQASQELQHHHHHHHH
T3 sequence (Q8NBP7 31-152, stated change not applied, chain 1 of 2): as the sequence (A8T644 31-152, chain 1 of 2) above
T3 sequence (Q8NBP7 other isoform, or with tags, fused parts or gaps mutant, chain 2 of 2): as the sequence (chain, as listed by the source mutant limits assumed, chain 2 of 2) above

B1: Compound 227 (peptide)
peptide: Ac-ESFPGWNLV[hArg]IGLLR-NH2
SMILES: CC[C@H](C)[C@H](NC(=O)[C@H](CCCCNC(=N)N)NC(=O)[C@@H](NC(=O)[C@H](CC(C)C)NC(=O)[C@H](CC(N)=O)NC(=O)[C@H](Cc1c[nH]c2ccccc12)NC(=O)CNC(=O)[C@@H]1CCCN1C(=O)[C@H](Cc1ccccc1)NC(=O)[C@H](CO)NC(=O)[C@H](CCC(=O)O)NC(C)=O)C(C)C)C(=O)NCC(=O)N[C@@H](CC(C)C)C(=O)N[C@@H](CC(C)C)C(=O)N[C@@H](CCCNC(=N)N)C(N)=O
B1: the “fold lower inhibitory activity against Compound 229” value in assay [1] is around 3 fold.
Ac-SGCFI[Hyp′]WNLQRIGLLC-NH2 (disulfide 3-16 (inferred), Has two Cys (positions 3 and 16)) [Compound 242: Ac-SG-CFI(Hyp)WNLQRIGLLC-NH2]: the IC50 in assay [2] was at least 50 µM; in assay [3] it was 31 µM.
Turning to Ac-WNLV[hArg]IGLLR-NH2 [Compound 192], the “fold improvement of binding affinity by homo-arginine substitution (against Compound 53)” value in the assay with PCSK9Δhelix is 14 fold.

B2: Compound 228 (peptide)
peptide: Ac-SFAFPGWNLV[hArg]IGLLR-NH2
SMILES: CC[C@H](C)[C@H](NC(=O)[C@H](CCCCNC(=N)N)NC(=O)[C@@H](NC(=O)[C@H](CC(C)C)NC(=O)[C@H](CC(N)=O)NC(=O)[C@H](Cc1c[nH]c2ccccc12)NC(=O)CNC(=O)[C@@H]1CCCN1C(=O)[C@H](Cc1ccccc1)NC(=O)[C@H](C)NC(=O)[C@H](Cc1ccccc1)NC(=O)[C@H](CO)NC(C)=O)C(C)C)C(=O)NCC(=O)N[C@@H](CC(C)C)C(=O)N[C@@H](CC(C)C)C(=O)N[C@@H](CCCNC(=N)N)C(N)=O
B2 had a Kd in assay [4] of 2.8 µM.
